How the values were obtained:
Jak2 = Jak2 (UniProt O60674); test: phosphorylation enrichment, bacterial display (enrichment ratio); higher = better substrate or ligand; peptides without Tyr show the background
c-Src = test: as above
AncSZ = test: as above
Fyn = Fyn (UniProt P06241); test: as above
Fer (mouse) = test: as above
FGFR1 = FGFR1 (UniProt P11362); test: as above
EPHB2 = EPHB2 (UniProt P29323); test: as above
MERTK = MERTK (UniProt Q12866); test: as above
c-Abl (mouse) = test: as above
EPHB1 = EPHB1 (UniProt P54762); test: as above
Hck = Hck (UniProt P08631); test: as above
FGFR3 = FGFR3 (UniProt P22607); test: as above
Fes = Fes (UniProt P07332); test: as above
SHP2-C SH2 = test: SH2 binding enrichment of the phosphorylated peptide, bacterial display (enrichment ratio); higher = better substrate or ligand; peptides without Tyr show the background
Grb2 SH2 = Grb2 SH2 (UniProt P62993); test: as above
c-Src SH2 = test: as above
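For SH2 binding enrichment of the phosphorylated peptide, bacterial display in this document: peptide library displayed on the E. coli surface as eCPX fusions, selected cells deep-sequenced, score is each peptide's frequency after selection divided by its frequency in the input.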
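For phosphorylation enrichment, bacterial display in this document: 11-residue human phosphosite peptides and single-mutation variants displayed on the E. coli surface, counted by deep sequencing, each peptide's frequency after selection divided by its frequency in the unselected input library; frequency after pTyr selection over input frequency; kinase dosed for 20-30% of maximal phosphorylation in three min.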

Chain of FGFR1 (P11362 whole entry, looked up): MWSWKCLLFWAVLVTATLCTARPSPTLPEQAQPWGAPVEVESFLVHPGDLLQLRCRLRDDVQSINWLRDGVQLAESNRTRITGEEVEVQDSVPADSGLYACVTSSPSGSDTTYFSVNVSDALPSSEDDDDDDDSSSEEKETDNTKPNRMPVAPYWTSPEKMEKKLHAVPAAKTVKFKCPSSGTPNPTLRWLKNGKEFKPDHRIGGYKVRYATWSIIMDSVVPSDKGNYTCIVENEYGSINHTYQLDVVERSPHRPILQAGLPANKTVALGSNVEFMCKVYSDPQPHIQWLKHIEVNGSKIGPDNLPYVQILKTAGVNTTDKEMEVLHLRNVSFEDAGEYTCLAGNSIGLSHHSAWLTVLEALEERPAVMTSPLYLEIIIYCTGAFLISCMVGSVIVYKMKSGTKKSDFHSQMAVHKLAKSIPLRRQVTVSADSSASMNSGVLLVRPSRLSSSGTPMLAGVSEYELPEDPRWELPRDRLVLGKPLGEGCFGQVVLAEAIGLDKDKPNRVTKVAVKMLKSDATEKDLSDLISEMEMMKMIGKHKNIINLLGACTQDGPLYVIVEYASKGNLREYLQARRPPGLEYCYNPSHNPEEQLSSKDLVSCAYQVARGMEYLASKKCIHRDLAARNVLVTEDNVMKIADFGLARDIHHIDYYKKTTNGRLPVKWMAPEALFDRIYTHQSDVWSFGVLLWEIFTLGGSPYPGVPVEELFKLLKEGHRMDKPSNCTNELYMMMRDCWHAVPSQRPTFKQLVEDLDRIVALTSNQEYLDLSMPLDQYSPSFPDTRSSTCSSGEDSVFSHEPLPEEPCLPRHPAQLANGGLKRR
Chain of FGFR3 (P22607 whole entry, looked up): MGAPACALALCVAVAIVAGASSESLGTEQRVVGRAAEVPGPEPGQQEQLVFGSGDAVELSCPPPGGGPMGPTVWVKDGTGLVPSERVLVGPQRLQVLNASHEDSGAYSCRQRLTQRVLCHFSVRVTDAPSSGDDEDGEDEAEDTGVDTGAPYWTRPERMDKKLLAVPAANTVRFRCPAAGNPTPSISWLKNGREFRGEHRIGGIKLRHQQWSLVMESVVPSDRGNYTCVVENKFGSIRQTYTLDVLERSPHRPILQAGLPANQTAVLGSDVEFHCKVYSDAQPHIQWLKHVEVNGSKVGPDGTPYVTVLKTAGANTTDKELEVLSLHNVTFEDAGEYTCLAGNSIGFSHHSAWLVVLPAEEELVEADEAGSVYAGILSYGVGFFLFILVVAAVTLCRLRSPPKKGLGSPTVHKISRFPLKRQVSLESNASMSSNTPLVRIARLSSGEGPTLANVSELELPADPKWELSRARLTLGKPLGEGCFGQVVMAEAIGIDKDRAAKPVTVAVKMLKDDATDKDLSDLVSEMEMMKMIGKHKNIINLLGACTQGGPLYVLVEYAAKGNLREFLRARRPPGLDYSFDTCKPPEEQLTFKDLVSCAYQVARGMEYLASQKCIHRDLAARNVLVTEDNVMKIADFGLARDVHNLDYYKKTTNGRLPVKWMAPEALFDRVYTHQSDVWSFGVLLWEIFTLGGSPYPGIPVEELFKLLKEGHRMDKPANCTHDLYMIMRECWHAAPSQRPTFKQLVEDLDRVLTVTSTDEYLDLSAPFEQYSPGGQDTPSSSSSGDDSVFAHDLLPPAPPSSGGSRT
Chain of Fyn (P06241 whole entry, looked up): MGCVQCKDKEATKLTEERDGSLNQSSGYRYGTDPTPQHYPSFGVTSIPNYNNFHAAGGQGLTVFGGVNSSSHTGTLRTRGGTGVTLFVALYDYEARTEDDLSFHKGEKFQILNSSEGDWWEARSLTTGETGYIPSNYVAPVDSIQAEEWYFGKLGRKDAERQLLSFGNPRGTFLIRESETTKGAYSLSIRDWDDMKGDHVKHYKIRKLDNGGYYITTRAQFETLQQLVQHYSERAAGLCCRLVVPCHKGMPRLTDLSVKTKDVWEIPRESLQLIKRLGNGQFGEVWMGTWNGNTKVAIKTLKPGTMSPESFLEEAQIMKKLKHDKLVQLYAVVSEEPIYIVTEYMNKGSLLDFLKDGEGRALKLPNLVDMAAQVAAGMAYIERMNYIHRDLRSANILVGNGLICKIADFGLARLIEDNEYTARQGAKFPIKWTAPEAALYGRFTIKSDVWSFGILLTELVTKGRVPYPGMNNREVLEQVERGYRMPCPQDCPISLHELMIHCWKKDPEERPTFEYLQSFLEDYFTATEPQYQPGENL
Chain of Fes (P07332 whole entry, looked up): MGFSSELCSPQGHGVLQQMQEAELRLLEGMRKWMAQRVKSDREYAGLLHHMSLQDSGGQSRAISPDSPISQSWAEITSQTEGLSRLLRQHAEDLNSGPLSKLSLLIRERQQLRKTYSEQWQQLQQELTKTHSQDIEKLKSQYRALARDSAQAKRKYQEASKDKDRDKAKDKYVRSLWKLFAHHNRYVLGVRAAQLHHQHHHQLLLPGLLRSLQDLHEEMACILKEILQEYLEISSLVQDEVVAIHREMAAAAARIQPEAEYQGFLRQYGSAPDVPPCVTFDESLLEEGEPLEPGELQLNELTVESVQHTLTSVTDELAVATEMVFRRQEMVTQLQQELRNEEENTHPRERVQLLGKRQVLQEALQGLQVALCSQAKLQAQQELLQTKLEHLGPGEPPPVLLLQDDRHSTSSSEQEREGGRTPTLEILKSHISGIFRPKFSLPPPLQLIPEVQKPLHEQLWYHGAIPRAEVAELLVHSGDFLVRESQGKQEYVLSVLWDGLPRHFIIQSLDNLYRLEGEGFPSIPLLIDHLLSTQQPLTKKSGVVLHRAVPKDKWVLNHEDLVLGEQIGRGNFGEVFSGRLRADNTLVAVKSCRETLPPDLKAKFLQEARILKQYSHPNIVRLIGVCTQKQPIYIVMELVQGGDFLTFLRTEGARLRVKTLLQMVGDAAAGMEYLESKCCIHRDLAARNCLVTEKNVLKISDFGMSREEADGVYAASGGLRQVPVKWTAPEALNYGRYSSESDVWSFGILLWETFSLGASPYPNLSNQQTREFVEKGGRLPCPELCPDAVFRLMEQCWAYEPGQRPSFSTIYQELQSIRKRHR
Chain of EPHB2 (P29323 whole entry, looked up): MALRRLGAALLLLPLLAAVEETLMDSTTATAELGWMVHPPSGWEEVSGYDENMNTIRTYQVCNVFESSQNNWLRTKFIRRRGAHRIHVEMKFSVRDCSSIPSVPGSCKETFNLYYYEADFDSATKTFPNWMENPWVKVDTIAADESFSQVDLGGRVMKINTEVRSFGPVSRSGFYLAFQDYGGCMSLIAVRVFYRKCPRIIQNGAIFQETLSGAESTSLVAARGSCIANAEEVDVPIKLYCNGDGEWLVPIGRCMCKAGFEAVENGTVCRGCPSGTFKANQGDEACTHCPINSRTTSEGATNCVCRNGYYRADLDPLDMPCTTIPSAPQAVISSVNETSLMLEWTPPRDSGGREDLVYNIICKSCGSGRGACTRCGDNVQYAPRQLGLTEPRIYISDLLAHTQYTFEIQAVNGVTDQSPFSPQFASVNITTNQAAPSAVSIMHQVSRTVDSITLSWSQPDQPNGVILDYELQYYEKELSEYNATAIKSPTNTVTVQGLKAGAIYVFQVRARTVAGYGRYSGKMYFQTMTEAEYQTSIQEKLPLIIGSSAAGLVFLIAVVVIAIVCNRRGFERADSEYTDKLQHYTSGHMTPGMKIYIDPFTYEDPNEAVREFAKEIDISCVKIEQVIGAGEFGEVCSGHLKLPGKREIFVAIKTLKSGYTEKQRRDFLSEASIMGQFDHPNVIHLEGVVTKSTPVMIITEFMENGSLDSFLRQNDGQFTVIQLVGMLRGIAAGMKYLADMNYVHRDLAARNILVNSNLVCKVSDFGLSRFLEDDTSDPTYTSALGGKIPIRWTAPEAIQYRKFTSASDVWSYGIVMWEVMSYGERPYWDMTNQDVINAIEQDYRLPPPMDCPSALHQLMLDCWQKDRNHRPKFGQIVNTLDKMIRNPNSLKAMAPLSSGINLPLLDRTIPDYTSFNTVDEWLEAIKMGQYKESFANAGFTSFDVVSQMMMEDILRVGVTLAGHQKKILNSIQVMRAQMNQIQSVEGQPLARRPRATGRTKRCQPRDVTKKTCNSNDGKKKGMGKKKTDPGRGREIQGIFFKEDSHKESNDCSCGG
Chain of MERTK (Q12866 whole entry, looked up): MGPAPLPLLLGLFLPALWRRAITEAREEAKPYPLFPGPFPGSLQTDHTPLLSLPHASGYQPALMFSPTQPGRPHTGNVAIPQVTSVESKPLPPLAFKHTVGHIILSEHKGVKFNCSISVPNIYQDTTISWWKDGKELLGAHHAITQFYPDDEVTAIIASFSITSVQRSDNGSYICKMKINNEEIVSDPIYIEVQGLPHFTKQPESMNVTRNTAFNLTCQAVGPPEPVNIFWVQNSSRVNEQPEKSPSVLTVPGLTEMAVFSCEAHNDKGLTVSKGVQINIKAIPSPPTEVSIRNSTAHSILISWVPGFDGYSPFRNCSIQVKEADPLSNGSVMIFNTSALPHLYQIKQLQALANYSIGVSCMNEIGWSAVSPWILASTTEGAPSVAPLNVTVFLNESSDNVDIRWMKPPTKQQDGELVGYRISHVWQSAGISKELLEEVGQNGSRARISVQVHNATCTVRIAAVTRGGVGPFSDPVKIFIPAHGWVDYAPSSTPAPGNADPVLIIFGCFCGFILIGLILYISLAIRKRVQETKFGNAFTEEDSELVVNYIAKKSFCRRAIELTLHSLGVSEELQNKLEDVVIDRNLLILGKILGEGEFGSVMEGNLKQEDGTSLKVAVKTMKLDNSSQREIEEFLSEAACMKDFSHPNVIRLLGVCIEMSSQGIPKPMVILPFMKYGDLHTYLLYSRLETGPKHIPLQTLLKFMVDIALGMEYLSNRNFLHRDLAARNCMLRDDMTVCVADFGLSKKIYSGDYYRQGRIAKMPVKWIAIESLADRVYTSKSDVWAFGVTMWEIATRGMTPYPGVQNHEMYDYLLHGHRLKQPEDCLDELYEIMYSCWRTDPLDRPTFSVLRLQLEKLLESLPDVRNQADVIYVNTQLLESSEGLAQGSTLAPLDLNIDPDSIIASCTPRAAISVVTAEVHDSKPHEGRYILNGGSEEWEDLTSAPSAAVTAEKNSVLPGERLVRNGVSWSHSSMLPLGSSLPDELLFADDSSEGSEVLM

Row | Sequence | phosphorylation enrichment (Jak2) | phosphorylation enrichment (c-Src) | phosphorylation enrichment (AncSZ) | phosphorylation enrichment (Fyn) | phosphorylation enrichment (Fer (mouse)) | phosphorylation enrichment (FGFR1) | phosphorylation enrichment (EPHB2) | phosphorylation enrichment (MERTK) | phosphorylation enrichment (c-Abl (mouse)) | phosphorylation enrichment (EPHB1) | phosphorylation enrichment (Hck) | phosphorylation enrichment (FGFR3) | phosphorylation enrichment (Fes) | SH2 binding enrichment (SHP2-C SH2) | SH2 binding enrichment (Grb2 SH2) | SH2 binding enrichment (c-Src SH2)
1 | KIVQDYLEKFY [MMP8_Y36_T32I] | 0.719 | 0.449 | 0.885 | 0.452 | 0.428 | 0.521 | 0.735 | 0.483 | 0.579 | 0.557 | 0.47 | 0.595 | 0.975 | 0.812 | 1.02 | 0.504
2 | KKKKQYKGKFL [CASK_Y708_D710G_YF] | 0.535 | 0.638 | 0.617 | 0.532 | 0.439 | 0.485 | 0.549 | 0.533 | 0.547 | 0.447 | 0.523 | 0.579 | 0.526 | 0.916 | 0.685 | 0.515
3 | KKYPDYIQSAM [SGMS2_Y59_I62S] | 0.716 | 0.428 | 0.839 | 0.443 | 0.373 | 0.484 | 0.396 | 0.392 | 0.595 | 0.543 | 0.413 | 0.487 | 0.772 | 0.746 | 0.883 | 0.394
4 | KLMTEYKKRKQ [ARFGEF3_Y2029] | 0.653 | 0.442 | 0.478 | 0.418 | 0.411 | 0.331 | 0.34 | 0.52 | 0.629 | 0.336 | 0.459 | 0.543 | 0.69 | 0.878 | 1.27 | 1.08
5 | KLRMESLSLMH [NCKIPSD_Y660_Y660S] | 0.644 | 0.457 | 0.658 | 0.45 | 0.388 | 0.453 | 0.483 | 0.436 | 0.508 | 0.423 | 0.415 | 0.476 | 0.782 | 0.923 | 1.15 | 0.746
6 | KMMGRYEMYAR [UPB1_Y362_T359M] | 0.966 | 0.414 | 0.711 | 0.333 | 0.302 | 0.5 | 0.551 | 0.543 | 0.367 | 0.374 | 0.51 | 0.529 | 0.711 | 0.826 | 1.29 | 1.11
7 | KNEKVYTRHGV [FLOT1_Y56_S52N] | 0.392 | 0.357 | 0.514 | 0.355 | 0.316 | 0.352 | 0.33 | 0.375 | 0.435 | 0.243 | 0.344 | 0.356 | 0.487 | 0.749 | 0.998 | 0.585
8 | KNRDVSSSDYF [USP24_Y2134_Y2134S] | 0.578 | 0.543 | 0.921 | 0.476 | 0.363 | 0.523 | 0.447 | 0.442 | 0.61 | 0.476 | 0.402 | 0.521 | 0.653 | 0.7 | 0.921 | 0.523
9 | KPGVNYYFQVS | 1.44 | 0.5 | 1.22 | 0.573 | 0.522 | 2.49 | 0.602 | 0.873 | 0.895 | 0.699 | 0.526 | 2.05 | 1.35 | 2 | 1.01 | 1.3
10 | KPIETYFSKNY [PLP1_Y50_L46P] | 0.534 | 0.452 | 0.595 | 0.448 | 0.4 | 0.466 | 0.408 | 0.466 | 0.473 | 0.392 | 0.45 | 0.597 | 0.603 | 0.654 | 0.851 | 0.599
11 | KPRKLYTIKKP [BRD2_Y715_P714L] | 0.532 | 0.442 | 0.608 | 0.375 | 0.413 | 0.328 | 0.444 | 0.408 | 0.456 | 0.374 | 0.452 | 0.427 | 0.496 | 1.19 | 1.07 | 0.972
12 | KPRKPYTIKKP [BRD2_Y715] | 2.95 | 0.75 | 1.28 | 0.608 | 1.19 | 0.864 | 0.765 | 0.644 | 1.98 | 1.03 | 0.924 | 2.2 | 1.94 | 1.73 | 1.85 | 1.9
13 | KQNSLYSFSDH [CCDC82_Y331] | 0.853 | 3.97 | 1 | 5.24 | 3.95 | 0.489 | 0.651 | 9.08 | 0.691 | 0.853 | 3.25 | 0.536 | 0.907 | 0.609 | 0.765 | 0.466
14 | KRGASYILKLA [SERPINB1_Y84] | 0.952 | 0.421 | 0.96 | 0.408 | 0.415 | 0.509 | 0.477 | 0.421 | 0.802 | 0.37 | 0.414 | 0.76 | 1.06 | 1.5 | 1.64 | 1.24
15 | KRLYAYKMLMA [TMC2_Y209_Q205R] | 0.675 | 0.399 | 0.731 | 0.327 | 0.42 | 0.453 | 0.493 | 0.348 | 0.684 | 0.492 | 0.436 | 0.568 | 0.869 | 1.68 | 1.83 | 1.84
16 | KRTFEYEAEKN [DENND2B_Y396_D399E] | 0.798 | 0.518 | 0.771 | 0.501 | 0.436 | 0.511 | 0.431 | 0.505 | 0.675 | 0.43 | 0.463 | 0.527 | 0.769 | 0.703 | 1.06 | 0.535
17 | KSELAYEIFDK [MYOM2_Y1024] | 1.24 | 4.27 | 2 | 1.94 | 1 | 0.65 | 0.603 | 4.45 | 0.915 | 0.596 | 0.951 | 0.782 | 1.21 | 0.776 | 0.956 | 0.956

Reference: the supplement of paper PMC10065799, “High-throughput profiling of sequence recognition by tyrosine kinases and SH2 domains using bacterial peptide display” (eLife, 2023)
